The text below walks through data of article PMC9637899, “Outer surface lipoproteins from the Lyme disease spirochete exploit the molecular switch mechanism of the complement protease C1s” (The Journal of Biological Chemistry, 2022).

For this test, the target named is T1, activated C1s–CCP1–CCP2–SP (human, UniProt P09871 292-688).
T1 construct: human complement C1s, C-terminal domains CCP1, CCP2 and serine protease (SP); Cleaved by C1r into two chains (confirmed by reducing SDS-PAGE); Tag removal is inferred: only the c-Myc S632A form 'was not subjected to His-TEV cleavage'; also called wildtype C1s–CCP1–CCP2–SP
T1 sequence: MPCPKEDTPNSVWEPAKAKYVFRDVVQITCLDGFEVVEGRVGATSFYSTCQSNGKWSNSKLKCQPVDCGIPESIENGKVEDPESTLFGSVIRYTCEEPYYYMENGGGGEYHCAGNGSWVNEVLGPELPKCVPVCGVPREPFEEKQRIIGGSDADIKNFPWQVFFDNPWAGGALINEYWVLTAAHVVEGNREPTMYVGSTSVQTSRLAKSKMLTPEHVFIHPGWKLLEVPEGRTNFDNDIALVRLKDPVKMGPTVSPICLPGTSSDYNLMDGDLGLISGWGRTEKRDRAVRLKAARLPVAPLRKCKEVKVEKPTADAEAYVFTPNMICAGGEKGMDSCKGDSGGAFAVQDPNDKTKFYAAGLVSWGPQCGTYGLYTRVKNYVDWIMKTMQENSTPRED
Nature of the test: SPR; Elp truncation amine-coupled to a CMD200 chip; multicycle twofold injection series of C1s enzyme or activated C1s–CCP1–CCP2–SP constructs from 200 nM; HBS-T Ca2+ (10 mM Hepes pH 7.3, 140 mM NaCl, 0.005% Tween-20, 5 mM CaCl2), 30 ul/min; K_(D, kin) from a kinetic and K_(D, ss) from a steady-state 1:1 (Langmuir) fit; triplicate. The conditions noted are these: both partners purified. Background: Surface plasmon resonance follows binding to a sensor surface in real time, without labels.

B1: ElpB_(182–378) (domain or fragment)
chain: QERKAKAEKEAKEKAERQKQEEQQKRKAEKEREEQRKEAEKRQVDNEIRTLTGKIDEINRNIDVIKEQTSVGAQGVIDRITGPVYDDFTDGNKAIYKTWGDLEDDNDEGLGKLLKELSDTRHNLRTKLNEGNKAYIIDTRSTEPQLKENVSVSEIKSDLDELKSKLEEVKEYLEDKDNFEEIKEYVAGSEDNYDEED
notes: ElpB (ErpB) of B. burgdorferi, residues 182-378; also called C-terminal domain of ElpB; not shown: His6 (from the vector pT7HMT), N-terminal, cleaved; c-Myc (from the vector pT7HMT), N-terminal, cleaved
For the molecule B1, the affinity, expressed as Kd, was 360 ± 17 nM.
